T1: HCMV UL44 (DNA polymerase processivity factor), full-length, yeast two-hybrid fusion (human cytomegalovirus (HCMV)), P16790
T1 chain: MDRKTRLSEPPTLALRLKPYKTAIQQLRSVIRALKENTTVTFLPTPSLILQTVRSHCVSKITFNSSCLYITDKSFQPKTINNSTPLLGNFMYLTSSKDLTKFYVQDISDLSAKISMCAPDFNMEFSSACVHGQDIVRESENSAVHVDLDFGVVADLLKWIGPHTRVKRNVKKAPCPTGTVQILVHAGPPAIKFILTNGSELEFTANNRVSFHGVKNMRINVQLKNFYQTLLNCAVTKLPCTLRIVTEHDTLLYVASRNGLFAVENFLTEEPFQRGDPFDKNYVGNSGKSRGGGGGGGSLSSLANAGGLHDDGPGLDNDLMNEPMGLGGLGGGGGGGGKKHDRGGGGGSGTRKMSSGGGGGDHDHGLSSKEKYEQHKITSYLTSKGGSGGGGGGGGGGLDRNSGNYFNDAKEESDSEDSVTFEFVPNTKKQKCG

B1: HCMV UL44 (DNA polymerase processivity factor), full-length, yeast two-hybrid fusion, P16790 1-433 (natural protein)
chain: T1 chain
B2: HCMV UL44 (DNA polymerase processivity factor), full-length, yeast two-hybrid fusion (natural protein)
chain: T1 chain
notes: also called LexA-UL44; GAD-UL44; source: yeast two-hybrid fusion (S. cerevisiae L40)
B3: HCMV UL54 (DNA polymerase catalytic subunit), GAD fusion (enzyme)
chain: MFFNPYLSGGVTGGAVAGGRRQRSQPGSAQGSGKRPPQKQFLQIVPRGVMFDGQTGLIKHKTGRLPLMFYREIKHLLSHDMVWPCPWRETLVGRVVGPIRFHTYDQTDAVLFFDSPENVSPRYRQHLVPSGNVLRFFGATEHGYSICVNVFGQRSYFYCEYSDTDRLREVIASVGELVPEPRTPYAVSVTPATKTSIYGYGTRPVPDLQCVSISNWTMARKIGEYLLEQGFPVYEVRVDPLTRLVIDRRITTFGWCSVNRYDWRQQGRASTCDIEVDCDVSDLVAVPDDSSWPRYRCLSFDIECMSGEGGFPCAEKSDDIVIQISCVCYETGGNTAVDQGIPNGNDGRGCTSEGVIFGHSGLHLFTIGTCGQVGPDVDVYEFPSEYELLLGFMLFFQRYAPAFVTGYNINSFDLKYILTRLEYLYKVDSQRFCKLPTAQGGRFFLHSPAVGFKRQYAAAFPSASHNNPASTAATKVYIAGSVVIDMYPVCMAKTNSPNYKLNTMAELYLRQRKDDLSYKDIPRCFVANAEGRAQVGRYCLQDAVLVRDLFNTINFHYEAGAIARLAKIPLRRVIFDGQQIRIYTSLLDECACRDFILPNHYSKGTTVPETNSVAVSPNAAIISTAAVPGDAGSVAAMFQMSPPLQSAPSSQDGVSPGSGSNSSSSVGVFSVGSGSSGGVGVSNDNHGAGGTAAVSYQGATVFEPEVGYYNDPVAVFDFASLYPSIIMAHNLCYSTLLVPGGEYPVDPADVYSVTLENGVTHRFVRASVRVSVLSELLNKWVSQRRAVRECMRECQDPVRRMLLDKEQMALKVTCNAFYGFTGVVNGMMPCLPIAASITRIGRDMLERTARFIKDNFSEPCFLHNFFNQEDYVVGTREGDSEESSALPEGLETSSGGSNERRVEARVIYGDTDSVFVRFRGLTPQALVARGPSLAHYVTACLFVEPVKLEFEKVFVSLMMICKKRYIGKVEGASGLSMKGVDLVRKTACEFVKGVTRDVLSLLFEDREVSEAAVRLSRLSLDEVKKYGVPRGFWRILRRLVQARDDLYLHRVRVEDLVLSSVLSKDISLYRQSNLPHIAVIKRLAARSEELPSVGDRVFYVLTAPGVRTAPQGSSDNGDSVTAGVVSRSDAIDGTDDDADGGGVEESNRRGGEPAKKRARKPPSAVCNYEVAEDPSYVREHGVPIHADKYFEQVLKAVTNVLSPVFPGGETARKDKFLHMVLPRRLHLEPAFLPYSVKAHECC
notes: also called GAD-UL54; source: yeast two-hybrid fusion (S. cerevisiae L40)

Legend:
Assay in all cases: two-hybrid
[1] = molecular target: T1, HCMV UL44 (DNA polymerase processivity …); conditions: remark: other sources report otherwise
[2] = molecular target: T2, human Ubc9 (SUMO-conjugating enzyme E2), yeast two-hybrid fusion (human, UniProt P63279 1-158); conditions: partners not purified
T2 construct: also called GAD-Ubc9; LexA-Ubc9

[3] = molecular target: B2; conditions: partners not purified

T2 sequence (P63279 whole entry, the tested form may be a part): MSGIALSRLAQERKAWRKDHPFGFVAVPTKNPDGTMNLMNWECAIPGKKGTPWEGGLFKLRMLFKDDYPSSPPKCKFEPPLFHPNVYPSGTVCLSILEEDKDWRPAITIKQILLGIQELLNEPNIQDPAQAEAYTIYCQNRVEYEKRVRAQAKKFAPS

Binder: B1
- β-gal expression [1]: 7640 Units

Binder: B2
- β-gal expression [2]: 6920 Units

Binder: B3
- β-gal expression [3]: 8240 Units

From paper PMC3499415, “The Human Cytomegalovirus DNA Polymerase Processivity Factor UL44 Is Modified by SUMO in a DNA-Dependent Manner” (PLoS ONE, 2012)
